Measurements: the supplement of paper PMC6379048
pEC50: −log10 of the molar value.

Experiments:
Test in all cases: EC50 of free RNA motif oligo competing protein binding to immobilised probe
PPIE = PPIE (UniProt Q9UNP9)
Summary of the method: (§1)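 Free RNA oligos (0 nM to 30 μM) were pre-incubated with HEK293-FT lysate (2.5 mg protein/well) for 1 h at 4°C, followed by 30 min at 4°C with the same 5′-amino-C6 oligos coupled to NHS-Sepharose beads. Bound proteins were quantified by label-free LC-MS/MS and normalised to the control. EC50 was derived from a four-parameter log-logistic fit, and Kd was obtained by multiplying EC50 by a protein-dependent depletion factor.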

RPS13 = RPS13 (UniProt P62277)
Summary of the method: as §1

DDX21 = biological target: T1, DDX21 (UniProt Q9NR30)
T1 sequence: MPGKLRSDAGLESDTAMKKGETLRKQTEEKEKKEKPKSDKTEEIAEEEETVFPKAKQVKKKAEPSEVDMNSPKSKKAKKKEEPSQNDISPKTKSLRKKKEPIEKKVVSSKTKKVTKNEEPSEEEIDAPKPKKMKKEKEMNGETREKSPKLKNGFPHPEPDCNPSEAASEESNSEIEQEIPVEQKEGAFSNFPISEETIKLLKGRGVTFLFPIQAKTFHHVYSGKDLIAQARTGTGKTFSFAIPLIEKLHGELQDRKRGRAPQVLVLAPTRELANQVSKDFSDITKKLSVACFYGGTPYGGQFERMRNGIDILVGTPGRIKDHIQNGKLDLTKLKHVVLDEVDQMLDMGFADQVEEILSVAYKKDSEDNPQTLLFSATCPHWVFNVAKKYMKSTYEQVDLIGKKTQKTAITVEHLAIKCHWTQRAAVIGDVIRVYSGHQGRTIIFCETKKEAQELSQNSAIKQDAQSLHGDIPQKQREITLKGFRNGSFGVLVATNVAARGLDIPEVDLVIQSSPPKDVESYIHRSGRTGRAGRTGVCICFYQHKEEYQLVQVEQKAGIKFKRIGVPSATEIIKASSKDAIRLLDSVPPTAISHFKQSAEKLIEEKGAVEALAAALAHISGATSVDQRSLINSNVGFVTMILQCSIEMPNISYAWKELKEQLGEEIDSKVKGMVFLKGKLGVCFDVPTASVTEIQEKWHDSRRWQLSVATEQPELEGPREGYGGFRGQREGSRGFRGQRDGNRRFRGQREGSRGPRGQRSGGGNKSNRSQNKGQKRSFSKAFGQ
Summary of the method: as §1

SYMPK = biological target: T2, SYMPK (UniProt Q92797)
T2 sequence: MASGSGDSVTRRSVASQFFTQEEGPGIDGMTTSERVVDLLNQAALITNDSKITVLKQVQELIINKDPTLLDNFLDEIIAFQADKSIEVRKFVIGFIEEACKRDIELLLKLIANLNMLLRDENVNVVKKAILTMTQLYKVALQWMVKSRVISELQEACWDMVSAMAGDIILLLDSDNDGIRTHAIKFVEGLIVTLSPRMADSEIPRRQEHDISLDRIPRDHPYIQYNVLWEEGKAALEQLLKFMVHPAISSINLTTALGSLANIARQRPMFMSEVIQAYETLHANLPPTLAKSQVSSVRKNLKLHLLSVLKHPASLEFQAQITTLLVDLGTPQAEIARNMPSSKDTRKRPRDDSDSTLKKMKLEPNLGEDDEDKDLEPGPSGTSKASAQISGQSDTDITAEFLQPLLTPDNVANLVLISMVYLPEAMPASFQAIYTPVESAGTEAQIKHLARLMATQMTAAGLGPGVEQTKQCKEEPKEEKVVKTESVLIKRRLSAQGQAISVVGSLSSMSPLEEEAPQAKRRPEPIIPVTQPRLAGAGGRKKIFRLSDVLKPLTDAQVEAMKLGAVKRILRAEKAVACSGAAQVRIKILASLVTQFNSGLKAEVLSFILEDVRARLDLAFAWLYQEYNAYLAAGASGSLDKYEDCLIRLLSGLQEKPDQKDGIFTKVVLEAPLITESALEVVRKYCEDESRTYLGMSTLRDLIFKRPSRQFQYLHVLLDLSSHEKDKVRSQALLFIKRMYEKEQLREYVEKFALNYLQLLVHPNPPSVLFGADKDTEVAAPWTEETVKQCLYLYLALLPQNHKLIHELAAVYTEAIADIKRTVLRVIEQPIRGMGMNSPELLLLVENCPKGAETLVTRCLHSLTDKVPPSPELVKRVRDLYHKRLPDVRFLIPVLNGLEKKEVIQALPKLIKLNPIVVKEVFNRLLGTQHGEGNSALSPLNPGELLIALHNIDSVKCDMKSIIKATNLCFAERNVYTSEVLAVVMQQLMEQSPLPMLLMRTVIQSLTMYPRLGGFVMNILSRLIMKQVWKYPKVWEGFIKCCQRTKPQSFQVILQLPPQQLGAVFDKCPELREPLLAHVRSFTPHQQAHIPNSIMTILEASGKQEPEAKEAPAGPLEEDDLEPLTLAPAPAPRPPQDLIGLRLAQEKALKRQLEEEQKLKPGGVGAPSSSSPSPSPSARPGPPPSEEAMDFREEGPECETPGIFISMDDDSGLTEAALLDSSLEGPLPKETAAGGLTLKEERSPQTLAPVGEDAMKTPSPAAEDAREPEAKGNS
Summary of the method: as §1

PPIE, sequence (Q9UNP9 whole entry): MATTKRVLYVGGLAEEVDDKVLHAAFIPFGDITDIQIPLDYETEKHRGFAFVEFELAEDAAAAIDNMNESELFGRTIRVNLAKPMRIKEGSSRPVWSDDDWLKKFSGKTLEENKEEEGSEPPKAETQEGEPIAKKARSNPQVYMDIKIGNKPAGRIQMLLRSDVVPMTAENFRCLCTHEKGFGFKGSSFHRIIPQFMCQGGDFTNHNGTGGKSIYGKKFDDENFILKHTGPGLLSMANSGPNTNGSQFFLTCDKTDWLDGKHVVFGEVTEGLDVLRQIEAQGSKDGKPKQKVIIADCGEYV

For UAUUUAU, the pEC50 (PPIE) was 6.52.
In the case of CUGUCCU, the pEC50 (RPS13) was 6.91 and the pEC50 (DDX21) was 6.94.
With AAUAAA the pEC50 (SYMPK) was 6.94.
